# B1: farletuzumab (MORAb-003) (antibody, part only; not given: Constant regions, V domains shown, not shown: another chain or arm of the molecule)
# VH: EVQLVESGGGVVQPGRSLRLSCSASGFTFSGYGLSWVRQAPGKGLEWVAMISSGGSYTYYADSVKGRFAISRDNAKNTLFLQMDSLRPEDTGVYFCARHGDDPAWFAYWGQGTPVTVSS
# VL: DIQLTQSPSSLSASVGDRVTITCSVSSSISSNNLHWYQQKPGKAPKPWIYGTSNLASGVPSRFSGSGSGTDYTFTISSLQPEDIATYYCQQWSSYPYMYTFGQGTKVEIK
# Tests used:
# [1] = biological target: recombinant purified FRα (ECL assay calibrator) (human) (UniProt P15328); test: ECL sandwich capture 19D4.B7 / detection 1A8.G11.E7; calibrator incubated overnight with 10 µg/mL MORAb-003
# recombinant purified FRα (ECL assay calibrator) (human), sequence (P15328 25-234 limits assumed): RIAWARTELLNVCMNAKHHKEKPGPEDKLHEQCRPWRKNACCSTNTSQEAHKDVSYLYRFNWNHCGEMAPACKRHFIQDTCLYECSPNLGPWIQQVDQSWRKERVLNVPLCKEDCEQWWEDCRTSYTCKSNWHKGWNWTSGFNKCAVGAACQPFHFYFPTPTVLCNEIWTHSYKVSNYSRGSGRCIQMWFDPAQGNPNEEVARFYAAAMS
# [2] = biological target: recombinant purified FRα (ECL assay calibrator) (human) (UniProt P15328); test: ECL sandwich competition; competitors 9F3 capture / 24F12 detection; FRα standard STD06; MORAb-003 10 µg/mL
# [3] = biological target: endogenous folate receptor alpha in human serum and plasma samples (human) (UniProt P15328); test: ECL sandwich capture 28H12.G9 / detection 19D4.B7; serum incubated overnight with 10 µg/mL MORAb-003
# endogenous folate receptor alpha in human serum and plasma samples (human), sequence (P15328 25-234 limits assumed, form in doubt): as the sequence (P15328 25-234 limits assumed) above
# [4] = biological target: recombinant purified FRα (ECL assay calibrator) (human) (UniProt P15328); test: ECL sandwich capture 6A2.G7 / detection 1D2.G8.G10; calibrator incubated overnight with 10 µg/mL MORAb-003
# [5] = biological target: endogenous folate receptor alpha in human serum and plasma samples (human) (UniProt P15328); test: ECL sandwich capture 19D4.B7 / detection 19D2.G9; serum incubated overnight with 10 µg/mL MORAb-003
# [6] = biological target: recombinant purified FRα (ECL assay calibrator) (human) (UniProt P15328); test: ECL sandwich capture 19D2.G9 / detection 19D4.B7; calibrator incubated overnight with 10 µg/mL MORAb-003
# [7] = biological target: recombinant purified FRα (ECL assay calibrator) (human) (UniProt P15328); test: ECL sandwich capture 19D4.B7 / detection 24H8.F3; calibrator incubated overnight with 10 µg/mL MORAb-003
# [8] = biological target: recombinant purified FRα (ECL assay calibrator) (human) (UniProt P15328); test: ECL sandwich competition; competitors 9F3 capture / 24F12 detection; FRα standard STD01; MORAb-003 50 µg/mL
# [9] = biological target: endogenous folate receptor alpha in human serum and plasma samples (human) (UniProt P15328); test: ECL sandwich capture 26A9.C4 / detection 19D4.B7; serum incubated overnight with 10 µg/mL MORAb-003
# [10] = biological target: recombinant purified FRα (ECL assay calibrator) (human) (UniProt P15328); test: ECL sandwich capture 1C6.E12.G8 / detection 30G6.G6.G4.E9; calibrator incubated overnight with 10 µg/mL MORAb-003
# [11] = biological target: recombinant purified FRα (ECL assay calibrator) (human) (UniProt P15328); test: ECL sandwich capture 6A2.G7 / detection 30G6.G6.G4.E9; calibrator incubated overnight with 10 µg/mL MORAb-003
# [12] = biological target: endogenous folate receptor alpha in human serum and plasma samples (human) (UniProt P15328); test: ECL sandwich capture 19D4.B7 / detection 1C6.E12.G8; serum incubated overnight with 10 µg/mL MORAb-003
# [13] = biological target: recombinant purified FRα (ECL assay calibrator) (human) (UniProt P15328); test: ECL sandwich competition; competitors 9F3 capture / 24F12 detection; FRα standard STD06; MORAb-003 50 µg/mL
# [14] = biological target: recombinant purified FRα (ECL assay calibrator) (human) (UniProt P15328); test: ECL sandwich capture 28H12.G9 / detection 19D4.B7; calibrator incubated overnight with 10 µg/mL MORAb-003
# [15] = biological target: recombinant purified FRα (ECL assay calibrator) (human) (UniProt P15328); test: ECL sandwich capture 6A2.G7 / detection 1C6.E12.G8; calibrator incubated overnight with 10 µg/mL MORAb-003
# [16] = biological target: recombinant purified FRα (ECL assay calibrator) (human) (UniProt P15328); test: ECL sandwich capture 24H8.F3 / detection 6A2.G7; calibrator incubated overnight with 10 µg/mL MORAb-003
# [17] = biological target: recombinant purified FRα (ECL assay calibrator) (human) (UniProt P15328); test: ECL sandwich capture 19D2.G9 / detection 30G6.G6.G4.E9; calibrator incubated overnight with 10 µg/mL MORAb-003
# [18] = biological target: recombinant purified FRα (ECL assay calibrator) (human) (UniProt P15328); test: ECL sandwich competition; competitors 9F3 capture / 24F12 detection; FRα standard STD02; MORAb-003 50 µg/mL
# [19] = biological target: recombinant purified FRα (ECL assay calibrator) (human) (UniProt P15328); test: ECL sandwich competition; competitors 9F3 capture / 24F12 detection; FRα standard STD08; MORAb-003 50 µg/mL
# [20] = biological target: recombinant purified FRα (ECL assay calibrator) (human) (UniProt P15328); test: ECL sandwich competition; competitors 9F3 capture / 24F12 detection; FRα standard STD03; MORAb-003 50 µg/mL
# [21] = biological target: recombinant purified FRα (ECL assay calibrator) (human) (UniProt P15328); test: ECL sandwich competition; competitors 9F3 capture / 24F12 detection; FRα standard STD07; MORAb-003 10 µg/mL
# [22] = biological target: recombinant purified FRα (ECL assay calibrator) (human) (UniProt P15328); test: ECL sandwich capture 24H8.F3 / detection 19D4.B7; calibrator incubated overnight with 10 µg/mL MORAb-003
# [23] = biological target: recombinant purified FRα (ECL assay calibrator) (human) (UniProt P15328); test: ECL sandwich capture 19D4.B7 / detection 1C6.E12.G8; calibrator incubated overnight with 10 µg/mL MORAb-003
# [24] = biological target: recombinant purified FRα (ECL assay calibrator) (human) (UniProt P15328); test: ECL sandwich competition; competitors 9F3 capture / 24F12 detection; FRα standard STD02; MORAb-003 10 µg/mL
binder,measurement,setting,value
B1,Drug Suppression of Cal Signal at 500 pg/mL,[1],-2%
same,% of signal without MORAb-003 (MORAb-003 interference),[2],103%
same,Drug suppression of serum,[3],-73.2%
same,Drug Suppression of Cal Signal at 500 pg/mL,[4],-7%
same,Drug suppression of serum,[5],-3.38%
same,Drug Suppression of Cal Signal at 500 pg/mL,[6],2%
same,Drug Suppression of Cal Signal at 500 pg/mL,[7],-14%
same,% of signal without MORAb-003 (MORAb-003 interference),[8],54%
same,Drug suppression of serum,[9],-59.7%
same,Drug Suppression of Cal Signal at 500 pg/mL,[10],-9%
same,Drug Suppression of Cal Signal at 500 pg/mL,[11],-1%
same,Drug suppression of serum,[12],-6.01%
same,% of signal without MORAb-003 (MORAb-003 interference),[13],78%
same,Drug Suppression of Cal Signal at 500 pg/mL,[14],-17%
same,Drug Suppression of Cal Signal at 500 pg/mL,[15],6%
same,Drug Suppression of Cal Signal at 500 pg/mL,[16],7%
same,Drug Suppression of Cal Signal at 500 pg/mL,[17],-4%
same,% of signal without MORAb-003 (MORAb-003 interference),[18],49%
same,% of signal without MORAb-003 (MORAb-003 interference),[19],115%
same,% of signal without MORAb-003 (MORAb-003 interference),[20],58%
same,% of signal without MORAb-003 (MORAb-003 interference),[21],87%
same,Drug Suppression of Cal Signal at 500 pg/mL,[22],9%
same,Drug Suppression of Cal Signal at 500 pg/mL,[23],-18%
same,% of signal without MORAb-003 (MORAb-003 interference),[24],70%

# — patent publication US20180148504A1
